Experimental data as given in US11827911B2, “Chimeric bacteriophage lysin with activity against Staphylococci bacteria” (priority 2008, dated 2023).

Test system: group A, B, C and E streptococci, S. gordonli, S. salivarius, S. uberis, Bacillus cereus, Pseudomonas aeruginosa and E. coli
Experiment: Muralytic activity on bacterial strains, Set III
Type: cell-based, mix of Gram-positive and Gram-negative bacteria
Conditions: 50 U of ClyS, 15 minutes
Protocol: Muralytic activity of ClyS was tested on a number of bacterial strains representing a variety of species which were divided into sets (Table 1 and FIG. 10). Set I consisted of S. aureus strains including methicillin-sensitive S. aureus (MSSA) and MRSA. ClyS was active against MSSA and MRSA although differences were observed between S. aureus strains. Set II consisted of different species of staphylococci including S. epidermidis, S. simulans and S. sciuri. […] Set III consisted of a mix of Gram-positive and Gram-negative bacteria including representatives of group A, B, C and E streptococci, oral streptococcal species including S. gordonli, and S. salivarius, as well as S. uberis, Bacillus cereus, Pseudomonas aeruginosa and E. coli.
The viability assay of ClyS was tested as previously described (Nelson et al, 2001). Briefly, log phase cultures of S. aureus strain 8325-4 were resuspended in PB to OD600 of 0.8-1.0. 50 U of ClyS or the corresponding volume of PB was added to bacterial cells and aliquots were removed, serially diluted, and plated at 1, 5, 10, 30, and 60 minutes to assess the viability of the treated and control cells. All experiments were performed in triplicate. The activity of ClyS on various bacterial strains was tested as described previously (Schuch et al, 2002). Briefly, log phase bacterial cells were treated with 50 U of ClyS at 37° C. for 15 minutes. […]

B1: ClyS: chimeric lysin: Twort lysin endopeptidase domain attached to the phiNM3 CWT domain, 280 amino acid residues (protein)
chain: METLKQAESYIKSKVNTGTDFDGLYGYQCMDLAVDYIYHVTDGKIRMWGNAKDAINNSFGGTATVYKNYPAFRPKYGDVVVWTTGNFATYGHIAIVTNPDPYGDLQYVTVLEQNWNGNGIYKTELATIRTHDYTGITHFIRPNFATESSVKKKDTKKKPKPSNRDGLNKDKIVYDRTNINYNMVLQGKSASKITVGSKAPYNLKWSKGAYFNAKIDGLGATSATRYGDNRTNYRFDVGQAVYAPGTLIYVFEIIDGWCRIYWNNHNEWIWHERLIVKEVF
modifications: Chimeric of Staphylococcus aureus bacteriophage Twort domain and Staphylococcus aureus phage phiNM3 CWT domain
notes: chimeric lysin: Twort lysin endopeptidase domain attached to the phiNM3 CWT domain, 280 amino acid residues
B1 was tested, and the “muralytic activity against Set III organisms” value was “no activity”.
